T1: Human IL-2Rβ/γ (intermediate affinity IL-2 receptor) (human, UniProt P14784 27-551; P31785 23-369)
T1 sequence (looked up) 1: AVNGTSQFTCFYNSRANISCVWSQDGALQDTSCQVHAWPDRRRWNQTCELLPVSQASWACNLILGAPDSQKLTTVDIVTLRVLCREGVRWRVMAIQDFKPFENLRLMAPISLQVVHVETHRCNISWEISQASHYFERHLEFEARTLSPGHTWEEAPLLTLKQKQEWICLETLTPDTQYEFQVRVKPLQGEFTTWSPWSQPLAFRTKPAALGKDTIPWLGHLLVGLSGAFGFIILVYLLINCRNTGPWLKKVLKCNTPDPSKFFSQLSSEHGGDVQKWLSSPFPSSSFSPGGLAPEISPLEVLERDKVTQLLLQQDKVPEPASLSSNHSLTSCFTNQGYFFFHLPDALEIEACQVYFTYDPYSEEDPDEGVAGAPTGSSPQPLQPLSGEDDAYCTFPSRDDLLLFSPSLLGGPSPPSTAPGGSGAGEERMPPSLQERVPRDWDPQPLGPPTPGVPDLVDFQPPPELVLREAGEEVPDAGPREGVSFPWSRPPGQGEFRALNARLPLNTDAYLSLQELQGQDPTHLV
T1 sequence (looked up) 2: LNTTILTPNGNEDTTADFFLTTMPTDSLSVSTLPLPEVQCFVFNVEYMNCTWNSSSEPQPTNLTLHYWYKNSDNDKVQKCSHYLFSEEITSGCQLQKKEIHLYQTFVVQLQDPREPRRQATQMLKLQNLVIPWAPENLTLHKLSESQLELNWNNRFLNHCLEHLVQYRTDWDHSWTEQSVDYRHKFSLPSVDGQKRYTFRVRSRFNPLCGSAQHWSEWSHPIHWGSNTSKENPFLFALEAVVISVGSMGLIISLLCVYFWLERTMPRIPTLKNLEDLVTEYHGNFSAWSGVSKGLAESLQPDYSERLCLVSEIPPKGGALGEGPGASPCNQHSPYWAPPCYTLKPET

T2: Human IL-2Rα/β/γ complex (high affinity IL-2 receptor) (human, UniProt P01589 22-272; P14784 27-551; P31785 23-369)
T2 sequence (looked up) 1: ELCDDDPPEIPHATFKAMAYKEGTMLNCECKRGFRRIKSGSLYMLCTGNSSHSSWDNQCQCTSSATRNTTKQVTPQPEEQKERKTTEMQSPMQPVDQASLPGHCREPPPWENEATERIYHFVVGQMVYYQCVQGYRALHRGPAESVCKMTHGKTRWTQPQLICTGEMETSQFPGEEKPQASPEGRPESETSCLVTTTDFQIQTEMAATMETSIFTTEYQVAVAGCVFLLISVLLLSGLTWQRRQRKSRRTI
T2 sequence (looked up) 2: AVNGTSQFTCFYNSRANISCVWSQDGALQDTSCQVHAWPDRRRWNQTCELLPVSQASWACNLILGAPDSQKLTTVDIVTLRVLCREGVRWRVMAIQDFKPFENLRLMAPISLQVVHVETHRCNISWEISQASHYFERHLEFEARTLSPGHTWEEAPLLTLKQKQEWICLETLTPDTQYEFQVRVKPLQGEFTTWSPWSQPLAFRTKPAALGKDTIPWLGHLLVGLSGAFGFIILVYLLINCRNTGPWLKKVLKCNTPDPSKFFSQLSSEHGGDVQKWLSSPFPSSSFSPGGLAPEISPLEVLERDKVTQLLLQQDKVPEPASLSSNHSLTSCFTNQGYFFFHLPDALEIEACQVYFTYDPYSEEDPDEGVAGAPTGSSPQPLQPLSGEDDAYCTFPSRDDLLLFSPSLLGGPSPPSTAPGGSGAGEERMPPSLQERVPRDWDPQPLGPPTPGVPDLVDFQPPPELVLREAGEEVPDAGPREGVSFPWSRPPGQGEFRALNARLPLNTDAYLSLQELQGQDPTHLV
T2 sequence (looked up) 3: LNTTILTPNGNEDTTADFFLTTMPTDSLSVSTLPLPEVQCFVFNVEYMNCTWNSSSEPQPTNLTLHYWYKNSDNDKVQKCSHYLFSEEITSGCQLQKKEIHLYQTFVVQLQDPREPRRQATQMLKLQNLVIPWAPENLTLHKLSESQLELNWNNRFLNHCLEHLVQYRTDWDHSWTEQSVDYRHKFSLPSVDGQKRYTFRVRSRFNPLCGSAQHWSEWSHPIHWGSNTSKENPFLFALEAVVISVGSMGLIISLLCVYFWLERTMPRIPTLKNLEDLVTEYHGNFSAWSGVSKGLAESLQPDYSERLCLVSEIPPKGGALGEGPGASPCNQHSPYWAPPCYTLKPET

B1: W3XX115-T2U0.E44-31.uIgG4V322 (Fc fusion)
chain: APTSSSTKKTQLQLEHLLLDLQMILNGINNYKNPKLTRMLTVKFYMPKKATELKHLQCLEEELKPLEEVLNLAQSKNFHLRPRDLISNINVIVLELKGSETTFMCEYADETATIVEFLNRWITFCQSILESKYGPPCPPCPAPEAAGGPSVFLFPPKPKDTLMISRTPEVTCVVVDVSQEDPEVQFNWYVDGVEVHNAKTKPREEQFNSTYRVVSVLTVLHQDWLNGKEYKCKVSNKGLPSSIEKTISKAKGQPREPQVYTLPPCQEEMTKNQVSLWCLVKGFYPSDIAVEWESNGQPENNYKTTPPVLDSDGSFFLYSRLTVDKSRWQEGNVFSCSVMHEALHNHYTQKSLSLSLG
heavy: EIQLQQSGPELVKPGASVKVSCKASGYSFTDYNMYWVKQSHGESLEWIGYIDPYNGGTRYNQKFKGKATLTVDKSSSTAFMHLNSLTSEDSAVYYCARNGHWDGAWFAYWGQGTLVTVSAASTKGPSVFPLAPCSRSTSESTAALGCLVKDYFPEPVTVSWNSGALTSGVHTFPAVLQSSGLYSLSSVVTVPSSSLGTKTYTCNVDHKPSNTKVDKRVESKYGPPCPPCPAPEAAGGPSVFLFPPKPKDTLMISRTPEVTCVVVDVSQEDPEVQFNWYVDGVEVHNAKTKPREEQFNSTYRVVSVLTVLHQDWLNGKEYKCKVSNKGLPSSIEKTISKAKGQPREPQVCTLPPSQEEMTKNQVSLSCAVKGFYPSDIAVEWESNGQPENNYKTTPPVLDSDGSFFLVSRLTVDKSRWQEGNVFSCSVMHEALHNHYTQKSLSLSLG
light: DIQMNQSPSSLSASLGDTITITCHASQNINVWLSWYQQKPGNIPKLLIYKASNLHTGVPSRFSGSRSGTGFTLTISSLQPEDIATYYCHQGQSYPFTFGSGTKLEIKRTVAAPSVFIFPPSDEQLKSGTASVVCLLNNFYPREAKVQWKVDNALQSGNSQESVTEQDSKDSTYSLSSTLTLSKADYEKHKVYACEVTHQGLSSPVTKSFNRGEC
B2: W3XX115-T2U0.E44-7.uIgG4V1 (Fc fusion)
chain: APTSSSTKKTQLQLEHLLLDLQMILNGINNYKNPKLTRMLTFKFYMPKKATELKHLQCLEEELKPLEEVLNLAQSKNFHLRPRDLISNINVIVLELKGSETTFMCEYADETATIVEFLNRWITFCQSIESKYGPPCPPCPAPEFLGGPSVFLFPPKPKDTLMISRTPEVTCVVVDVSQEDPEVQFNWYVDGVEVHNAKTKPREEQFNSTYRVVSVLTVLHQDWLNGKEYKCKVSNKGLPSSIEKTISKAKGQPREPQVYTLPPCQEEMTKNQVSLWCLVKGFYPSDIAVEWESNGQPENNYKTTPPVLDSDGSFFLYSRLTVDKSRWQEGNVFSCSVMHEALHNHYTQKSLSLSLG
heavy: EIQLQQSGPELVKPGASVKVSCKASGYSFTDYNMYWVKQSHGESLEWIGYIDPYNGGTRYNQKFKGKATLTVDKSSSTAFMHLNSLTSEDSAVYYCARNGHWDGAWFAYWGQGTLVTVSAASTKGPSVFPLAPCSRSTSESTAALGCLVKDYFPEPVTVSWNSGALTSGVHTFPAVLQSSGLYSLSSVVTVPSSSLGTKTYTCNVDHKPSNTKVDKRVESKYGPPCPPCPAPEFLGGPSVFLFPPKPKDTLMISRTPEVTCVVVDVSQEDPEVQFNWYVDGVEVHNAKTKPREEQFNSTYRVVSVLTVLHQDWLNGKEYKCKVSNKGLPSSIEKTISKAKGQPREPQVCTLPPSQEEMTKNQVSLSCAVKGFYPSDIAVEWESNGQPENNYKTTPPVLDSDGSFFLVSRLTVDKSRWQEGNVFSCSVMHEALHNHYTQKSLSLSLG
light: DIQMNQSPSSLSASLGDTITITCHASQNINVWLSWYQQKPGNIPKLLIYKASNLHTGVPSRFSGSRSGTGFTLTISSLQPEDIATYYCHQGQSYPFTFGSGTKLEIKRTVAAPSVFIFPPSDEQLKSGTASVVCLLNNFYPREAKVQWKVDNALQSGNSQESVTEQDSKDSTYSLSSTLTLSKADYEKHKVYACEVTHQGLSSPVTKSFNRGEC
notes: IL-2 with C-terminal 5 aa (ISTLT) deleted; E44 format, IgG4
B3: W3XX115-T2U0.E44-32.uIgG4V322 (Fc fusion)
chain: APTSSSTKKTQLQLEHLLLDLQMILNGINNYKNPKLTRMLTIKFYMPKKATELKHLQCLEEELKPLEEVLNLAQSKNFHLRPRDLISNINVIVLELKGSETTFMCEYADETATIVEFLNRWITFCQSILESKYGPPCPPCPAPEAAGGPSVFLFPPKPKDTLMISRTPEVTCVVVDVSQEDPEVQFNWYVDGVEVHNAKTKPREEQFNSTYRVVSVLTVLHQDWLNGKEYKCKVSNKGLPSSIEKTISKAKGQPREPQVYTLPPCQEEMTKNQVSLWCLVKGFYPSDIAVEWESNGQPENNYKTTPPVLDSDGSFFLYSRLTVDKSRWQEGNVFSCSVMHEALHNHYTQKSLSLSLG
heavy: EIQLQQSGPELVKPGASVKVSCKASGYSFTDYNMYWVKQSHGESLEWIGYIDPYNGGTRYNQKFKGKATLTVDKSSSTAFMHLNSLTSEDSAVYYCARNGHWDGAWFAYWGQGTLVTVSAASTKGPSVFPLAPCSRSTSESTAALGCLVKDYFPEPVTVSWNSGALTSGVHTFPAVLQSSGLYSLSSVVTVPSSSLGTKTYTCNVDHKPSNTKVDKRVESKYGPPCPPCPAPEAAGGPSVFLFPPKPKDTLMISRTPEVTCVVVDVSQEDPEVQFNWYVDGVEVHNAKTKPREEQFNSTYRVVSVLTVLHQDWLNGKEYKCKVSNKGLPSSIEKTISKAKGQPREPQVCTLPPSQEEMTKNQVSLSCAVKGFYPSDIAVEWESNGQPENNYKTTPPVLDSDGSFFLVSRLTVDKSRWQEGNVFSCSVMHEALHNHYTQKSLSLSLG
light: DIQMNQSPSSLSASLGDTITITCHASQNINVWLSWYQQKPGNIPKLLIYKASNLHTGVPSRFSGSRSGTGFTLTISSLQPEDIATYYCHQGQSYPFTFGSGTKLEIKRTVAAPSVFIFPPSDEQLKSGTASVVCLLNNFYPREAKVQWKVDNALQSGNSQESVTEQDSKDSTYSLSSTLTLSKADYEKHKVYACEVTHQGLSSPVTKSFNRGEC

Experiments:
[1] = target: T1, Human IL-2Rβ/γ (intermediate affinity …); experiment: cell-based or functional assay
[2] = target: T1, Human IL-2Rβ/γ (intermediate affinity …); experiment: FACS, HH cells
Procedure: (§1) Human cutaneous T cell lymphoma HH cells, malignant non-Hodgkin's lymphoma NK92 cells and cutaneous T cell lymphoma MJ20 cells were used for binding assay. They both constitutively express IL-2Rβ (CD122) and […] (CD132), and NK92 and MJ20 also expresses IL-2Rα (CD25). HH, NK92 and MJ20 cells were cultured following ATCC guidance, then transferred to a 96-plate for binding analysis. Cells were incubated with IL-2/Fc fusion proteins at the indicated concentrations for 30 min at 4° C. to avoid internalization. Binding was detected by 2nd antibody of PE-anti-human Fc at 4° C. for another 30 min. The median fluorescence intensity (MFI) on HH and NK92 cells was measured using FACS.

[3] = target: T1, Human IL-2Rβ/γ (intermediate affinity …); experiment: FACS, HH cells; EC50 fold vs T2U0.E44-1
Procedure: as §1

[4] = target: T2, Human IL-2Rα/β/γ complex (high affinity …); experiment: cell-based or functional assay
[5] = target: T1, Human IL-2Rβ/γ (intermediate affinity …); experiment: cell-based or functional assay; remark: listed apart in the source
[6] = target: T2, Human IL-2Rα/β/γ complex (high affinity …); experiment: FACS, NK92 cells; EC50 fold vs T2U0.E44-1
Procedure: as §1

[7] = target: T2, Human IL-2Rα/β/γ complex (high affinity …); experiment: FACS, NK92 cells
Procedure: as §1

| Binder | Human CD8+ T Potency EC50 (STAT5 phosphorylation) [1] | Human CD8+ T Potency reduction [1] | EC50 [2] | Affinity reduction [3] | Potency in human Treg EC50 [4] | Potency reduction (Treg) [4] | Potency in human CD8+ T EC50 [5] | Potency reduction (CD8+ T) [5] | Affinity reduction [6] | EC50 [7] |
| --- | --- | --- | --- | --- | --- | --- | --- | --- | --- | --- |
| B1 | 365 nM | 100 fold | 800 nM | 15.8 fold |  |  |  |  |  |  |
| B2 |  |  |  |  | 36.4 nM | 1400 fold | 5.11 µM | 535 fold | 94 fold | ~515 nM |
| B3 | 379 nM | 104 fold | 904 nM | 17.9 fold |  |  |  |  |  |  |

— US20250000946A1 (WUXI BIOLOGICS IRELAND, published 2025)
